# Columns and labels:
# [1] = biological target: pVI (precursor to protein VI) (Human adenovirus 2) (UniProt P03274); assay: FP; conditions: 20 mM Tris pH 8.0, 0.025% DDM, 0.1 mM DTT, 1 mM MgCl2, 21 C; 4:1 stoichiometry
# [2] = system: Protein VI (Human adenovirus 2); assay: FP; conditions: 20 mM Tris pH 8.0, 0.025% DDM, 1 mM MgCl2, 21 C
# Chain of pVI (precursor to protein VI) (Human adenovirus 2) (P03274 whole entry): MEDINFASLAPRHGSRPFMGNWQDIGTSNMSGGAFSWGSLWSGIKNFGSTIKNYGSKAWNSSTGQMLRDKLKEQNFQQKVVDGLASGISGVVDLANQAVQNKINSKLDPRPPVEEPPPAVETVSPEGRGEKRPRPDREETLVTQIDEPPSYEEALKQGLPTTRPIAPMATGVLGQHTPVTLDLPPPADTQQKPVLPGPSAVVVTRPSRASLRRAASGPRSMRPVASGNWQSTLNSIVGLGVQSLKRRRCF
substance,measurement,setting,value
33-mer dsDNA,Kd,[1],35 nM
same,Kd,[2],241 nM
